From patent US20230235040A1 (ALMIRALL S A, published 2023)

Target: T1, cy-IL-36γ-Avi (in-vivo biotinylated) (cynomolgus monkey, limits assumed, site-specifically biotinylated in vivo on the C-terminal AviTag (BirA))
T1 construct: also called biotinylated cyno IL-36γ-Avi
T1 chain: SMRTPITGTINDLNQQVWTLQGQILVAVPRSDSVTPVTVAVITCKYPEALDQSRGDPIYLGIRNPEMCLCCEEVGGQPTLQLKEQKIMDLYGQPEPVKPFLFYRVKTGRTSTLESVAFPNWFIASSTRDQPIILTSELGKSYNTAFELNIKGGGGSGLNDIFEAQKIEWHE
Assay: SPR (Biacore 8K), in-vivo biotinylated IL-36-Avi captured on CAP chip, bispecific IgG injected, 37°C
Procedure: Surface plasmon resonance (SPR) analysis was used to determine the binding affinity for human and cynomolgus monkey IL-36 (“hu-IL-36” and “cy-IL-36,” respectively) using a BIACORE™ 8K instrument as described in Example 2. […] Briefly, a 1:4 dilution of Biotin CAPture Reagent (GE Healthcare) into HBS-EP buffer (0.01 M HEPES pH 7.4, 0.15 M NaCl, 3 mM EDTA, 0.005% Surfactant P20) was applied to a CAP sensor chip at 2 μL/min flow rate. For kinetics measurements, 1 nM biotinylated human and cyno IL-36α-Avi, IL-36γ-Avi; 0.8 nM biotinylated human and cyno IL-36β-Avi were captured at 10 μL/min to achieve 15-25 response units in the second flow cell (FC2). FC1 was kept as a reference. […] The sensorgram was recorded and subject to reference and buffer subtraction before data analysis with the BIACORE® 8K Evaluation Software (version 1.1.1.7442). […] Association rates (kₒₙ) and dissociation rates (koff) were calculated using a simple one-to-one Langmuir binding model. The equilibrium dissociation constant (KD) was calculated as the ratio of koff/kₒₙ.

B1: mAb2.10/mAb6_2.7 multispecific common light chain antibody (IgG, knobs-into-holes, N297G) (bispecific antibody)
heavy 1: not shown
heavy 2: not shown
light: ESVLTQPPSVSGAPGQRVTISCTGSSSNIGAHYDVHWYQQLPGTAPKLLIYGNDNRPSGVPDRFSGSKSGTSASLAITGLQAEDEADYYCQSYDYSLSGYVFGGGTKLTVLGQPKAAPSVTLFPPSSEELQANKATLVCLISDFYPGAVTVAWKADSSPVKAGVETTTPSKQSNNKYAASSYLSLTPEQWKSHKSYSCQVTHEGSTVEKTVAPTECS
notes: tags removed; also called mAb2.10/mAb6_2.7 IgG; anti-IL-36 multispecific antibody
Binder B1 has a Kd of 0.94 nM, a koff of 0.000148 s⁻¹ and a kon of 158000 M⁻¹ s⁻¹.
